Source: publication PMC6712033, “Proteasome subunit α1 overexpression preferentially drives canonical proteasome biogenesis and enhances stress tolerance in yeast” (Scientific Reports, 2019)

Biological target: T1, proteasome subunit α2-K160C (S. cerevisiae, UniProt P23639 1-250, K160C)
T1 construct: 20S proteasome core particle subunit α2, S. cerevisiae, with an engineered cysteine at the α2-α3 interface; Detected with an anti-His antibody (TetraHis); also called His (α2); source: S. cerevisiae (WT or pba3Δ), in cell extract
T1 sequence (looked up): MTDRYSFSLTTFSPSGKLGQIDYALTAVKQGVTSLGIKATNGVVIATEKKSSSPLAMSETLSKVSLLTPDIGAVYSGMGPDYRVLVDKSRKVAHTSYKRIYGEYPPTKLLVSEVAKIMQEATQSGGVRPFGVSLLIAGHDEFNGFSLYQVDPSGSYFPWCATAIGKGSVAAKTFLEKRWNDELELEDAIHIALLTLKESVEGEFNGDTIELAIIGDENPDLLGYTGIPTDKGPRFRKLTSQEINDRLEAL
Test: cross-linking; engineered disulfide crosslinking in yeast extracts (WT or pba3Δ, empty vector or α1 overexpressed); 250 µM CuCl2, 25 °C, 10 minutes; 50 mM HEPES pH 7.5, 150 mM NaCl, 5 mM MgCl2, 2 mM ATP; non-reducing SDS-PAGE, anti-His immunoblot; reversed by DTT
Settings: partners not purified

B1: proteasome subunit α3-L56C (natural protein, S. cerevisiae, UniProt P23638 1-258, looked up)
chain: MGSRRYDSRTTIFSPEGRLYQVEYALESISHAGTAIGIMASDGIVLAAERKVTSTCLEQDTSTEKLYKLNDKIAVAVAGLTADAEILINTARIHAQNYLKTYNEDIPVEILVRRLSDIKQGYTQHGGLRPFGVSFIYAGYDDRYGYQLYTSNPSGNYTGWKAISVGANTSAAQTLLQMDYKDDMKVDDAIELALKTLSKTTDSSALTYDRLEFATIRKGANDGEVYQKIFKPQEIKDILVKTGITKKDEDEEADEDMK
notes: 20S proteasome core particle subunit α3, S. cerevisiae, with an engineered cysteine at the α2-α3 interface; source: S. cerevisiae (WT or pba3Δ), in cell extract
In the case of B1, the “fold increase in crosslinking (α1 overexpressed against empty vector, pba3Δ cells)” value is reported as 1.76 fold.
